Assay results: PMC13425845

Key:
[1] = molecular target: human γD-crystallin C18S/C32S/C41S/C78S (human); assay: intact protein electrospray mass spectrometry; Bruker Impact II QTOF electrospray mass spectrometer with HPLC; isotopically averaged mass of monomer and dimer samples
[2] = molecular target: human γD-crystallin C18T/C32A/C41A/C78A (human); assay: as above

human γD-crystallin C18S/C32S/C41S/C78S (natural protein)
stoichiometry N [1]: 2

human γD-crystallin C18T/C32A/C41A/C78A (natural protein)
stoichiometry N [2]: 2
